Results on 48 variants are retold here after the Human Domainome abundance scans (Beltran et al. 2025).

± gives the uncertainty stated by the source.

The chains are these.
B1: Membrane-associated guanylate kinase, WW and PDZ domain-containing protein 3, residues 287 to 329; numbered along this chain, Q5TCQ9 (parent)
chain: MRDETLEPLPKNWEMAYTDTGMIYFIDHNTKTTTWLDPRLCKK
B2: Zinc finger homeobox protein 3, residues 2643 to 2698; numbered along this chain, Q15911 (parent)
chain: RLRTTITPEQLEILYQKYLLDSNPTRKMLDHIAHEVGLKKRVVQVWFQNTRARERK

Variants of B1 are the subject of one data set. Description: abundance fitness (aPCA) (normalised: wild type 0, dead -1); higher = more abundant; growth selection in yeast, the domain comes from the species named. Particulars: Homo sapiens.
K43S: the abundance fitness amounted to 0.002 ± 0.04. K43W: the abundance fitness was -0.044 ± 0.047. On to K43V, for which the abundance fitness was -0.045 ± 0.065.

In the next data set the parent is B2. Described as above. The note with it: Homo sapiens.
In the case of RLRTYITPEQLEILYQKYLLDSNPTRKMLDHIAHEVGLKKRVVQVWFQNTRARERK [T5Y], the abundance fitness is -0.319 ± 0.24. As for RLRTEITPEQLEILYQKYLLDSNPTRKMLDHIAHEVGLKKRVVQVWFQNTRARERK [T5E], the abundance fitness worked out at 0.445 ± 0.15. Consider RLRTWITPEQLEILYQKYLLDSNPTRKMLDHIAHEVGLKKRVVQVWFQNTRARERK [T5W], for which the abundance fitness was -0.192 ± 0.15. On the same count and under the same terms, the same measure for RLRTVITPEQLEILYQKYLLDSNPTRKMLDHIAHEVGLKKRVVQVWFQNTRARERK [T5V]: -0.172 ± 0.089. For RLRTKITPEQLEILYQKYLLDSNPTRKMLDHIAHEVGLKKRVVQVWFQNTRARERK [T5K], the abundance fitness was -0.593 ± 0.23. As for RLRTSITPEQLEILYQKYLLDSNPTRKMLDHIAHEVGLKKRVVQVWFQNTRARERK [T5S], the abundance fitness is -0.25 ± 0.12. For RLRTCITPEQLEILYQKYLLDSNPTRKMLDHIAHEVGLKKRVVQVWFQNTRARERK [T5C], the abundance fitness was -0.107 ± 0.14. On the same count and under the same terms, to RLRTIITPEQLEILYQKYLLDSNPTRKMLDHIAHEVGLKKRVVQVWFQNTRARERK [T5I] belongs -0.165 ± 0.14; to RLRTMITPEQLEILYQKYLLDSNPTRKMLDHIAHEVGLKKRVVQVWFQNTRARERK [T5M], 0.286 ± 0.15; to RLRTNITPEQLEILYQKYLLDSNPTRKMLDHIAHEVGLKKRVVQVWFQNTRARERK [T5N], -0.233 ± 0.19.

Turning to RLRTRITPEQLEILYQKYLLDSNPTRKMLDHIAHEVGLKKRVVQVWFQNTRARERK [T5R], the abundance fitness is -0.498 ± 0.096. For the variant RLRTAITPEQLEILYQKYLLDSNPTRKMLDHIAHEVGLKKRVVQVWFQNTRARERK [T5A], the abundance fitness was found to be 0.132 ± 0.097. Regarding RLRTQITPEQLEILYQKYLLDSNPTRKMLDHIAHEVGLKKRVVQVWFQNTRARERK [T5Q], the abundance fitness worked out at 0.17 ± 0.15.

Consider RLRTFITPEQLEILYQKYLLDSNPTRKMLDHIAHEVGLKKRVVQVWFQNTRARERK [T5F], for which the abundance fitness is -0.358 ± 0.2. As for RLRTPITPEQLEILYQKYLLDSNPTRKMLDHIAHEVGLKKRVVQVWFQNTRARERK [T5P], the abundance fitness was determined as 0.176 ± 0.17. As for RLRTHITPEQLEILYQKYLLDSNPTRKMLDHIAHEVGLKKRVVQVWFQNTRARERK [T5H], the abundance fitness was -0.784 ± 0.31.

RLRTDITPEQLEILYQKYLLDSNPTRKMLDHIAHEVGLKKRVVQVWFQNTRARERK [T5D]: the abundance fitness is 0.075 ± 0.14. Turning to RTRTTITPEQLEILYQKYLLDSNPTRKMLDHIAHEVGLKKRVVQVWFQNTRARERK [L2T], the abundance fitness stood at 0.25 ± 0.12. As to RHRTTITPEQLEILYQKYLLDSNPTRKMLDHIAHEVGLKKRVVQVWFQNTRARERK [L2H], the abundance fitness was -0.006 ± 0.2. RMRTTITPEQLEILYQKYLLDSNPTRKMLDHIAHEVGLKKRVVQVWFQNTRARERK [L2M]: the abundance fitness is -0.221 ± 0.17. In the case of RWRTTITPEQLEILYQKYLLDSNPTRKMLDHIAHEVGLKKRVVQVWFQNTRARERK [L2W], the abundance fitness is -0.134 ± 0.13. Still for that read-out and setting: to RYRTTITPEQLEILYQKYLLDSNPTRKMLDHIAHEVGLKKRVVQVWFQNTRARERK [L2Y] belongs 0.222 ± 0.16; to RRRTTITPEQLEILYQKYLLDSNPTRKMLDHIAHEVGLKKRVVQVWFQNTRARERK [L2R], -0.262 ± 0.1; to RSRTTITPEQLEILYQKYLLDSNPTRKMLDHIAHEVGLKKRVVQVWFQNTRARERK [L2S], 0.331 ± 0.1. On the same count and under the same terms, the same measure for RGRTTITPEQLEILYQKYLLDSNPTRKMLDHIAHEVGLKKRVVQVWFQNTRARERK [L2G]: 0.136 ± 0.083. With RARTTITPEQLEILYQKYLLDSNPTRKMLDHIAHEVGLKKRVVQVWFQNTRARERK [L2A], the abundance fitness was -0.009 ± 0.12. Turning to RFRTTITPEQLEILYQKYLLDSNPTRKMLDHIAHEVGLKKRVVQVWFQNTRARERK [L2F], the abundance fitness stood at 0.082 ± 0.16.

Consider RQRTTITPEQLEILYQKYLLDSNPTRKMLDHIAHEVGLKKRVVQVWFQNTRARERK [L2Q], for which the abundance fitness amounted to 0.102 ± 0.21.

RIRTTITPEQLEILYQKYLLDSNPTRKMLDHIAHEVGLKKRVVQVWFQNTRARERK [L2I]: the abundance fitness was determined as 0.217 ± 0.13. Turning to RNRTTITPEQLEILYQKYLLDSNPTRKMLDHIAHEVGLKKRVVQVWFQNTRARERK [L2N], the abundance fitness was found to be 0.232 ± 0.21. Regarding RDRTTITPEQLEILYQKYLLDSNPTRKMLDHIAHEVGLKKRVVQVWFQNTRARERK [L2D], the abundance fitness was 0.655 ± 0.14.

As to RPRTTITPEQLEILYQKYLLDSNPTRKMLDHIAHEVGLKKRVVQVWFQNTRARERK [L2P], the abundance fitness was -0.227 ± 0.16. In the case of RERTTITPEQLEILYQKYLLDSNPTRKMLDHIAHEVGLKKRVVQVWFQNTRARERK [L2E], the abundance fitness worked out at 0.17 ± 0.15. Take RLLTTITPEQLEILYQKYLLDSNPTRKMLDHIAHEVGLKKRVVQVWFQNTRARERK [R3L]: the abundance fitness was determined as 0.186 ± 0.095. On to RLATTITPEQLEILYQKYLLDSNPTRKMLDHIAHEVGLKKRVVQVWFQNTRARERK [R3A], for which the abundance fitness is 0.493 ± 0.083.

RLFTTITPEQLEILYQKYLLDSNPTRKMLDHIAHEVGLKKRVVQVWFQNTRARERK [R3F]: the abundance fitness was determined as 0.037 ± 0.15. As for RLWTTITPEQLEILYQKYLLDSNPTRKMLDHIAHEVGLKKRVVQVWFQNTRARERK [R3W], the abundance fitness was determined as 0.241 ± 0.1. Take RLNTTITPEQLEILYQKYLLDSNPTRKMLDHIAHEVGLKKRVVQVWFQNTRARERK [R3N]: the abundance fitness was determined as 0.173 ± 0.17.

For the variant RLQTTITPEQLEILYQKYLLDSNPTRKMLDHIAHEVGLKKRVVQVWFQNTRARERK [R3Q], the abundance fitness came out at 0.353 ± 0.13.

Regarding RLCTTITPEQLEILYQKYLLDSNPTRKMLDHIAHEVGLKKRVVQVWFQNTRARERK [R3C], the abundance fitness amounted to 0.216 ± 0.11.

In the case of RLYTTITPEQLEILYQKYLLDSNPTRKMLDHIAHEVGLKKRVVQVWFQNTRARERK [R3Y], the abundance fitness was 0.006 ± 0.17. Consider RLITTITPEQLEILYQKYLLDSNPTRKMLDHIAHEVGLKKRVVQVWFQNTRARERK [R3I], for which the abundance fitness was 0.19 ± 0.14. Take RLPTTITPEQLEILYQKYLLDSNPTRKMLDHIAHEVGLKKRVVQVWFQNTRARERK [R3P]: the abundance fitness was -0.081 ± 0.15.

As for RLMTTITPEQLEILYQKYLLDSNPTRKMLDHIAHEVGLKKRVVQVWFQNTRARERK [R3M], the abundance fitness is 0.317 ± 0.12. Still for that read-out and setting: the same measure for RLGTTITPEQLEILYQKYLLDSNPTRKMLDHIAHEVGLKKRVVQVWFQNTRARERK [R3G]: 0.228 ± 0.076.
